Measurements from article PMC6504924, “Utilizing a Simple Method for Stoichiometric Protein Labeling to Quantify Antibody Blockade” (Scientific Reports, 2019).

T1: unlabeled VEGF165a homodimer purified in the same manner (with CDN N-terminal appendage)
T1 chain: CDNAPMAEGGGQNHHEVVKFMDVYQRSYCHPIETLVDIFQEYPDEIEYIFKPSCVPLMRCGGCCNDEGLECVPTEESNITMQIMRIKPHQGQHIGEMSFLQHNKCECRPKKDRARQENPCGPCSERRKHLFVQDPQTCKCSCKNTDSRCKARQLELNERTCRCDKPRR

B1: unlabeled PDGF-BB homodimer purified in the same manner (with CDN N-terminal appendage) (ligand)
chain: CDNSLGSLTIAEPAMIAECKTRTEVFEISRRLIDRTNANFLVWPPCVEVQRCSGCCNNRNVQCRPTQVQLRPVQVRKIEIVRKKPIFKKATVTLEDHLACKCETVAAARPVT
notes: three-amino acid N-terminal appendage left after HaloTEV cleavage of the modified TEV site EDLYFQC; platelet-derived growth factor subunit B (PDGF-B); Disulfide-linked homodimer; also called PDFG-B; source: HEK293T, transiently expressed as secreted HaloTag fusion, purified (HaloLink beads, HaloTEV release); not shown: HaloTag, N-terminal, cleaved
B2: unlabeled VEGF165a homodimer purified in the same manner (with CDN N-terminal appendage) (ligand)
chain: T1 chain
modifications: disulfide-linked homodimer; unlabeled; mature VEGF165 limits by convention (191-aa AUG-initiated isoform precursor, signal 1-26) / disulfide-linked homodimer; unlabeled; mature VEGF165 limits by …

Legend:
[1] = target: the molecule itself; assay: SDS-PAGE with and without reducing agent; purified growth factors resolved by SDS-PAGE in the presence and absence of 100 mM dithiothreitol (DTT)
[2] = target: T1, unlabeled VEGF165a homodimer purified …; assay: as above; details: both partners purified

Binder	stoichiometry N [1]	stoichiometry N [2]
B1	2	–
B2	–	2
